Experimental data reported in the supplement of paper PMC5998384.

Legend:
HeLa Kyoto [1] = test: solubility change mitosis vs G1/S (difference of NP-40 vs SDS log2 ratios) (log2 ratio difference); higher = more soluble in mitosis
HeLa Kyoto [2] = test: thermal stability score vs G1/S (z-score of summed log2 fold changes over temperatures); higher = more thermally stable than in G1/S
HeLa Kyoto [3] = test: melting temperature (median over replicates), in situ; higher = more thermally stable
HeLa Kyoto [4] = test: solubility in G1/S (NP-40 vs SDS abundance) (log2 ratio); higher = more soluble; conditions: cell cycle stage: G1/S
[5] = cell cycle stage: early G1 (4.5 h after nocodazole release)
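For melting temperature (median over replicates), in situ in this document: HeLa Kyoto cells synchronized by double thymidine or nocodazole block, proteins quantified by TMT10plex mass spectrometry, three independent biological replicates.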
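For solubility change mitosis vs G1/S (difference of NP-40 vs SDS log2 ratios) in this document: synchronized HeLa Kyoto cells (double thymidine block for G1/S, nocodazole release for mitosis), protein amounts in NP-40 versus SDS lysates quantified by mass spectrometry, three biological replicates.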
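For solubility in G1/S (NP-40 vs SDS abundance) in this document: HeLa Kyoto cells arrested at G1/S by double thymidine block, proteins quantified by TMT10plex mass spectrometry in mild NP-40 versus SDS extracts, three biological replicates.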
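For thermal stability score vs G1/S (z-score of summed log2 fold changes over temperatures) in this document: synchronized HeLa Kyoto cells, proteins quantified by TMT10plex mass spectrometry, three biological replicates, mitosis taken 0.5 h after nocodazole release, G1/S directly after double thymidine block.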

Sequence | solubility change mitosis (log2) (HeLa Kyoto [1]) | thermal stability score (HeLa Kyoto [2]; [5]) | thermal stability score (HeLa Kyoto [2]; cell cycle stage: mitosis) | melting temperature (HeLa Kyoto [3]; cell cycle stage: G1/S) | melting temperature (HeLa Kyoto [3]; cell cycle stage: mitosis) | solubility in G1/S (log2) (HeLa Kyoto [4])
MAAAGQLCLLYLSAGLLSRLGAAFNLDTREDNVIRKYGDPGSLFGFSLAMHWQLQPEDKRLLLVGAPRAEALPLQRANRTGGLYSCDITARGPCTRIEFDNDADPTSESKEDQWMGVTVQSQGPGGKVVTCAHRYEKRQHVNTKQESRDIFGRCYVLSQNLRIEDDMDGGDWSFCDGRLRGHEKFGSCQQGVAATFTKDFHYIVFGAPGTYNWKGIVRVEQKNNTFFDMNIFEDGPYEVGGETEHDESLVPVPANSYLGLLFLTSVSYTDPDQFVYKTRPPREQPDTFPDVMMNSYLGFSLDSGKGIVSKDEITFVSGAPRANHSGAVVLLKRDMKSAHLLPEHIFDGEGLASSFGYDVAVVDLNKDGWQDIVIGAPQYFDRDGEVGGAVYVYMNQQGRWNNVKPIRLNGTKDSMFGIAVKNIGDINQDGYPDIAVGAPYDDLGKVFIYHGSANGINTKPTQVLKGISPYFGYSIAGNMDLDRNSYPDVAVGSLSDSVTIFRSRPVINIQKTITVTPNRIDLRQKTACGAPSGICLQVKSCFEYTANPAGYNPSISIVGTLEAEKERRKSGLSSRVQFRNQGSEPKYTQELTLKRQKQKVCMEETLWLQDNIRDKLRPIPITASVEIQEPSSRRRVNSLPEVLPILNSDEPKTAHIDVHFLKEGCGDDNVCNSNLKLEYKFCTREGNQDKFSYLPIQKGVPELVLKDQKDIALEITVTNSPSNPRNPTKDGDDAHEAKLIATFPDTLTYSAYRELRAFPEKQLSCVANQNGSQADCELGNPFKRNSNVTFYLVLSTTEVTFDTPDLDINLKLETTSNQDNLAPITAKAKVVIELLLSVSGVAKPSQVYFGGTVVGEQAMKSEDEVGSLIEYEFRVINLGKPLTNLGTATLNIQWPKEISNGKWLLYLVKVESKGLEKVTCEPQKEINSLNLTESHNSRKKREITEKQIDDNRKFSLFAERKYQTLNCSVNVNCVNIRCPLRGLDSKASLILRSRLWNSTFLEEYSKLNYLDILMRAFIDVTAAAENIRLPNAGTQVRVTVFPSKTVAQYSGVPWWIILVAILAGILMLALLVFILWKCGFFKRSRYDDSVPRYHAVRIRKEEREIKDEKYIDNLEKKQWITKWNENESYS [ITGA6] | -0.116 | -2.3 | -1.75 | 55.4 °C | 55.6 °C | 0.154
MAAAMVPGRSESWERGEPGRPALYFCGSIRGGREDRTLYERIVSRLRRFGTVLTEHVAAAELGARGEEAAGGDRLIHEQDLEWLQQADVVVAEVTQPSLGVGYELGRAVAFNKRILCLFRPQSGRVLSAMIRGAADGSRFQVWDYEEGEVEALLDRYFEADPPGQVAASPDPTT [DNPH1] | 0.00918 | -1.99 | -2.01 | 55.3 °C | 55.3 °C | 0.392
MAAAQEADGARSAVVAAGGGSSGQVTSNGSIGRDPPAETQPQNPPAQPAPNAWQVIKGVLFRIFIIWAISSWFRRGPAPQDQAGPGGAPRVASRNLFPKDTLMNLHVYISEHEHFTDFNATSALFWEQHDLVYGDWTSGENSDGCYEHFAELDIPQSVQQNGSIYIHVYFTKSGFHPDPRQKALYRRLATVHMSRMINKYKRRRFQKTKNLLTGETEADPEMIKRAEDYGPVEVISHWHPNITINIVDDHTPWVKGSVPPPLDQYVKFDAVSGDYYPIIYFNDYWNLQKDYYPINESLASLPLRVSFCPLSLWRWQLYAAQSTKSPWNFLGDELYEQSDEEQDSVKVALLETNPYLLALTIIVSIVHSVFEFLAFKNDIQFWNSRQSLEGLSVRSVFFGVFQSFVVLLYILDNETNFVVQVSVFIGVLIDLWKITKVMDVRLDREHRVAGIFPRLSFKDKSTYIESSTKVYDDMAFRYLSWILFPLLGCYAVYSLLYLEHKGWYSWVLSMLYGFLLTFGFITMTPQLFINYKLKSVAHLPWRMLTYKALNTFIDDLFAFVIKMPVMYRIGCLRDDVVFFIYLYQRWIYRVDPTRVNEFGMSGEDPTAAAPVAEVPTAAGALTPTPAPTTTTATREEASTSLPTKPTQGASSASEPQEAPPKPAEDKKKD [CLPTM1] | -0.142 | 3.21 | 0.298 | 53.4 °C | 53.8 °C | -0.0403
MAAARPSLGRVLPGSSVLFLCDMQEKFRHNIAYFPQIVSVAARMLKVARLLEVPVMLTEQYPQGLGPTVPELGTEGLRPLAKTCFSMVPALQQELDSRPQLRSVLLCGIEAQACILNTTLDLLDRGLQVHVVVDACSSRSQVDRLVALARMRQSGAFLSTSEGLILQLVGDAVHPQFKEIQKLIKEPAPDSGLLGLFQGQNSLLH [ISOC2] | -0.173 | 1.82 | -1.19 | 55.1 °C | 54.9 °C | 0.188
MAAASGYTDLREKLKSMTSRDNYKAGSREAAAAAAAAVAAAAAAAAAAEPYPVSGAKRKYQEDSDPERSDYEEQQLQKEEEARKVKSGIRQMRLFSQDECAKIEARIDEVVSRAEKGLYNEHTVDRAPLRNKYFFGEGYTYGAQLQKRGPGQERLYPPGDVDEIPEWVHQLVIQKLVEHRVIPEGFVNSAVINDYQPGGCIVSHVDPIHIFERPIVSVSFFSDSALCFGCKFQFKPIRVSEPVLSLPVRRGSVTVLSGYAADEITHCIRPQDIKERRAVIILRKTRLDAPRLETKSLSSSVLPPSYASDRLSGNNRDPALKPKRSHRKADPDAAHRPRILEMDKEENRRSVLLPTHRRRGSFSSENYWRKSYESSEDCSEAAGSPARKVKMRRH [ALKBH5] | 0.0485 | 3.65 | -0.482 | 51 °C | 51.4 °C | -0.0973
MAAASVTPPGSLELLQPGFSKTLLGTKLEAKYLCSACRNVLRRPFQAQCGHRYCSFCLASILSSGPQNCAACVHEGIYEEGISILESSSAFPDNAARREVESLPAVCPSDGCTWKGTLKEYESCHEGRCPLMLTECPACKGLVRLGEKERHLEHECPERSLSCRHCRAPCCGADVKAHHEVCPKFPLTCDGCGKKKIPREKFQDHVKTCGKCRVPCRFHAIGCLETVEGEKQQEHEVQWLREHLAMLLSSVLEAKPLLGDQSHAGSELLQRCESLEKKTATFENIVCVLNREVERVAMTAEACSRQHRLDQDKIEALSSKVQQLERSIGLKDLAMADLEQKVLEMEASTYDGVFIWKISDFARKRQEAVAGRIPAIFSPAFYTSRYGYKMCLRIYLNGDGTGRGTHLSLFFVVMKGPNDALLRWPFNQKVTLMLLDQNNREHVIDAFRPDVTSSSFQRPVNDMNIASGCPLFCPVSKMEAKNSYVRDDAIFIKAIVDLTGL [TRAF2] | -0.084 | -0.77 | -1.17 | 52.5 °C | 52.2 °C | 0.0627
MAAATADPGAGNPQPGDSSGGGAGGGLPSPGEQELSRRLQRLYPAVNQQETPLPRSWSPKDKYNYIGLSQGNLRVHYKGHGKNHKDAASVRATHPIPAACGIYYFEVKIVSKGRDGYMGIGLSAQGVNMNRLPGWDKHSYGYHGDDGHSFCSSGTGQPYGPTFTTGDVIGCCVNLINGTCFYTKNGHSLGIAFTDLPANLYPTVGLQTPGEIVDANFGQQPFLFDIEDYMREWRAKVQGTVHCFPISARLGEWQAVLQNMVSSYLVHHGYCATATAFARMTETPIQEEQASIKNRQKIQKLVLEGRVGEAIETTQRFYPGLLEHNPNLLFMLKCRQFVEMVNGTDSEVRSLSSRSPKSQDSYPGSPSLSPRHGPSSSHMHNTGADSPSCSNGVASTKSKQNHSKYPAPSSSSSSSSSSSSSSPSSVNYSESNSTDSTKSQHHSSTSNQETSDSEMEMEAEHYPNGVLGSMSTRIVNGAYKHEDLQTDESSMDDRHPRRQLCGGNQAATERIILFGRELQALSEQLGREYGKNLAHTEMLQDAFSLLAYSDPWSCPVGQQLDPIQREPVCAALNSAILESQNLPKQPPLMLALGQASECLRLMARAGLGSCSFARVDDYLH [RANBP10] | -0.193 | 0.428 | 0.506 | 51.4 °C | 51.1 °C | 0.151
MAAAVAAAGAGEPQSPDELLPKGDAEKPEEELEEDDDEELDETLSERLWGLTEMFPERVRSAAGATFDLSLFVAQKMYRFSRAALWIGTTSFMILVLPVVFETEKLQMEQQQQLQQRQILLGPNTGLSGGMPGALPSLPGKI [TOMM22] | 0.211 | -3.84 | -4.82 | 53.4 °C | 52.8 °C | -0.782
MAAAVAAAGRLGWLFAALCLGNAAGEAAPGPRVLGFCLEEDGAAGAGWVRGGAARDTPDATFLLRLFGPGFANSSWSWVAPEGAGCREEAASPAGEWRALLRLRLRAEAVRPHSALLAVRVEPGGGAAEEAAPPWALGLGAAGLLALAALARGLQLSALALAPAEVQVLRESGSEAERAAARRLEPARRWAGCALGALLLLASLAQAALAVLLYRAAGQRAVPAVLGSAGLVFLVGEVVPAAVSGRWTLALAPRALGLSRLAVLLTLPVALPVGQLLELAARPGRLRERVLELARGGGDPYSDLSKGVLRCRTVEDVLTPLEDCFMLDASTVLDFGVLASIMQSGHTRIPVYEEERSNIVDMLYLKDLAFVDPEDCTPLSTITRFYNHPLHFVFNDTKLDAVLEEFKRGKSHLAIVQKVNNEGEGDPFYEVLGLVTLEDVIEEIIRSEILDESEDYRDTVVKRKPASLMAPLKRKEEFSLFKVSDDEYKVTISPQLLLATQRFLSREVDVFSPLRISEKVLLHLLKHPSVNQEVRFDESNRLATHHYLYQRSQPVDYFILILQGRVEVEIGKEGLKFENGAFTYYGVSALTVPSSVHQSPVSSLQPIRHDLQPDPGDGTHSSAYCPDYTVRALSDLQLIKVTRLQYLNALLATRAQNLPQSPENTDLQVIPGSQTRLLGEKTTTAAGSSHSRPGVPVEGSPGRNPGV [CNNM3] | -0.00872 | -0.222 | -0.298 | 52.3 °C | 51.3 °C | 0.0405
MAAAVAAAPGALGSLHAGGARLVAACSAWLCPGLRLPGSLAGRRAGPAIWAQGWVPAAGGPAPKRGYSSEMKTEDELRVRHLEEENRGIVVLGINRAYGKNSLSKNLIKMLSKAVDALKSDKKVRTIIIRSEVPGIFCAGADLKERAKMSSSEVGPFVSKIRAVINDIANLPVPTIAAIDGLALGGGLELALACDIRVAASSAKMGLVETKLAIIPGGGGTQRLPRAIGMSLAKELIFSARVLDGKEAKAVGLISHVLEQNQEGDAAYRKALDLAREFLPQGPVAMRVAKLAINQGMEVDLVTGLAIEEACYAQTIPTKDRLEGLLAFKEKRPPRYKGE [AUH] | -0.0164 | 0.266 | 1.09 | 51.6 °C | 51.6 °C | 0.261
MAACTARRALAVGSRWWSRSLTGARWPRPLCAAAGAGAFSPASTTTTRRHLSSRNRPEGKVLETVGVFEVPKQNGKYETGQLFLHSIFGYRGVVLFPWQARLYDRDVASAAPEKAENPAGHGSKEVKGKTHTYYQVLIDARDCPHISQRSQTEAVTFLANHDDSRALYAIPGLDYVSHEDILPYTSTDQVPIQHELFERFLLYDQTKAPPFVARETLRAWQEKNHPWLELSDVHRETTENIRVTVIPFYMGMREAQNSHVYWWRYCIRLENLDSDVVQLRERHWRIFSLSGTLETVRGRGVVGREPVLSKEQPAFQYSSHVSLQASSGHMWGTFRFERPDGSHFDVRIPPFSLESNKDEKTPPSGLHW [POLDIP2] | -0.0327 | 0.146 | -0.814 | 50.9 °C | 51.4 °C | 0.07
MAAEDELQLPRLPELFETGRQLLDEVEVATEPAGSRIVQEKVFKGLDLLEKAAEMLSQLDLFSRNEDLEEIASTDLKYLLVPAFQGALTMKQVNPSKRLDHLQRAREHFINYLTQCHCYHVAEFELPKTMNNSAENHTANSSMAYPSLVAMASQRQAKIQRYKQKKELEHRLSAMKSAVESGQADDERVREYYLLHLQRWIDISLEEIESIDQEIKILRERDSSREASTSNSSRQERPPVKPFILTRNMAQAKVFGAGYPSLPTMTVSDWYEQHRKYGALPDQGIAKAAPEEFRKAAQQQEEQEEKEEEDDEQTLHRAREWDDWKDTHPRGYGNRQNMG [IGBP1] | 0.103 | -0.476 | -0.0586 | 50.7 °C | 51.4 °C | 0.454
